# Results as given in patent publication US20040175720A1 (NEW YORK UNIVERSITY, published 2004).
# T1: B42-NIF-1 (full-length), B42 activation domain fusion expressed from pJG4-5 in yeast (human, UniProt Q9H4Z2 1-1342)
# T1 construct: also called NIF-1 expressed as a B42-fusion
# T1 sequence: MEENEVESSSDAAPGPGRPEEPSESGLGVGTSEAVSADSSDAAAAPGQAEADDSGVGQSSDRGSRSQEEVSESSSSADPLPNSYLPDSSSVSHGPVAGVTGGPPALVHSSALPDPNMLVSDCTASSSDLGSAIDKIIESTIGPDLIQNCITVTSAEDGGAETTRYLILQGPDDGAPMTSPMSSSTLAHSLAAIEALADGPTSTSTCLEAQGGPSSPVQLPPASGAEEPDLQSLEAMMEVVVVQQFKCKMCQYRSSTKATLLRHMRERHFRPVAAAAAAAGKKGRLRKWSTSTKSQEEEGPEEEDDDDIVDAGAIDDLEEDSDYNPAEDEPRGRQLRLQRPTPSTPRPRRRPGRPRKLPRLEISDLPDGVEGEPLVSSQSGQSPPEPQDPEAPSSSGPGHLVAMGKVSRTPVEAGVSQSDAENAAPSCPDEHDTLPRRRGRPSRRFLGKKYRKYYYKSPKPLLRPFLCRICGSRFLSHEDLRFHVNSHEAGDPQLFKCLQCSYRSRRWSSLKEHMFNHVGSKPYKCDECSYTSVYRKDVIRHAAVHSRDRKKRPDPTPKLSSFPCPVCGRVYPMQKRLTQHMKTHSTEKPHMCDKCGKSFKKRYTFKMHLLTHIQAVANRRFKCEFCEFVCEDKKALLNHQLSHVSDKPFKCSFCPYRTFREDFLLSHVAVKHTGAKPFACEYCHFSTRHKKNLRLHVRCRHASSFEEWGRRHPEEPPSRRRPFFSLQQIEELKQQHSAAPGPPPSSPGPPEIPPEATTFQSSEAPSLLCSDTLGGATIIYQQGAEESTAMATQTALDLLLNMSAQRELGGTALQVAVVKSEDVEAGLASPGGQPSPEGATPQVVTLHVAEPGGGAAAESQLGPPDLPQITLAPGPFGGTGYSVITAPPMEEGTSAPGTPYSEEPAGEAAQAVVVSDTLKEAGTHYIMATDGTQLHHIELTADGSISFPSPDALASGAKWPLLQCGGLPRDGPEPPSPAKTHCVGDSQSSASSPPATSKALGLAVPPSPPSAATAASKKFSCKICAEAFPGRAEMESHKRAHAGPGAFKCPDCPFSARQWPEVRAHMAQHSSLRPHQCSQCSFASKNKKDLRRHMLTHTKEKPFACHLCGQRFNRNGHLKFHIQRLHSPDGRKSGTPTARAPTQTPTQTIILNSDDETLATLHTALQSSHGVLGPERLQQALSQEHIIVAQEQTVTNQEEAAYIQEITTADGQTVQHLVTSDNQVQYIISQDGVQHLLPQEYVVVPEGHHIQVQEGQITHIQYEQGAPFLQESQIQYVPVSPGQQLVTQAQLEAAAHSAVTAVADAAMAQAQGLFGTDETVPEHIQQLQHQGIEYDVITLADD
# B1: LexA-hRXRα LBD (LexA fusion of the ligand binding domain of hRXRα) (receptor, UniProt P0A7C2 1-202, looked up)
# chain: MKALTARQQEVFDLIRDHISQTGMPPTRAEIAQRLGFRSPNAAEEHLKALARKGVIEIVSGASRGIRLLQEEEEGLPLVGRVAAGEPLLAQQHIEGHYQVDPSLFKPNADFLLRVSGMSMKDIGIMDGDLLAVHKTQDVRNGQVVVARIDDEVTVKRLKKQGNKVELLPENSEFKPIVVDLRQQSFTIEGLAVGVIRNGDWLMGMKREAVQEERQRGKDRNENEVESTSSANEDMPVERILEAELAVEPKTETYVEANMGLNPSSPNDPVTNICQAADKQLFTLVEWAKRIPHFSELPLDDQVILLRAGWNELLIASFSHRSIAVKDGILLATGLHVHRNSAHSAGVGAIFDRVLTELVSKMRDMQMDKTELGCLRAIVLFNPDSKGLSNPAEVEALREKVYASLEAYCKHKYPEQPGRFAKLLLRLPALRSIGLKCLEHLFFFKLIGDTPIDTFLMEMLEAPHQMT
# notes: domain: LexA DBD;domain: LBD
# B2: LexA-cTRα LBD (LexA fusion of the ligand binding domain of cTRα) (receptor, UniProt P0A7C2 1-202, looked up)
# chain: MKALTARQQEVFDLIRDHISQTGMPPTRAEIAQRLGFRSPNAAEEHLKALARKGVIEIVSGASRGIRLLQEEEEGLPLVGRVAAGEPLLAQQHIEGHYQVDPSLFKPNADFLLRVSGMSMKDIGIMDGDLLAVHKTQDVRNGQVVVARIDDEVTVKRLKKQGNKVELLPENSEFKPIVVDLRQQSFTIEGLAVGVIRNGDWLMDLVLDDSKRVAKRKLIEENRERRRKEEMIKSLQHRPSPSAEEWELIHVVTEAHRSTNAQGSHWKQKRKFLPEDIGQSPMASMPDGDKVDLEAFSEFTKIITPAITRVVDFAKKLPMFSELPCEDQIILLKGCCMEIMSLRAAVRYDPESETLTLSGEMAVKREQLKNGGLGVVSDAIFDLGKSLSAFNLDDTEVALLQAVLLMSSDRTGLICVDKIEKCQETYLLAFEHYINYRKHNIPHFWPKLLMKVTDLRMIGACHASRFLHMKVECPTELFPPLFLEVFEDQEV
# notes: domain: LexA DBD;domain: LBD; also called cTRa
# B3: LexA-hGR LBD (LexA fusion of the ligand binding domain of hGR) (receptor, UniProt P0A7C2 1-202, looked up)
# chain: MKALTARQQEVFDLIRDHISQTGMPPTRAEIAQRLGFRSPNAAEEHLKALARKGVIEIVSGASRGIRLLQEEEEGLPLVGRVAAGEPLLAQQHIEGHYQVDPSLFKPNADFLLRVSGMSMKDIGIMDGDLLAVHKTQDVRNGQVVVARIDDEVTVKRLKKQGNKVELLPENSEFKPIVVDLRQQSFTIEGLAVGVIRNGDWLGMNLEARKTKKKIKGIQQATTGVSQETSENPGNKTIVPATLPQLTPTLVSLLEVIEPEVLYAGYDSSVPDSTWRIMTTLNMLGGRQVIAAVKWAKAIPGFRNLHLDDQMTLLQYSWMFLMAFALGWRSYRQSSANLLCFAPDLIINEQRMTLPCMYDQCKHMLYVSSELHRLQVSYEEYLCMKTLLLLSSVPKDGLKSQELFDEIRMTYIKELGKAIVKREGNSSQNWQRFYQLTKLLDSMHEVVENLLNYCFQTFLDKTMSIEFPEMLAEIITNQIPKYSNGNIKKLLFHQK
# notes: domain: LexA DBD;domain: LBD
# B4: LexA-human ERα-LBD (LexA fusion of the ligand binding domain of hERα) (receptor, UniProt P0A7C2 1-202, looked up)
# chain: MKALTARQQEVFDLIRDHISQTGMPPTRAEIAQRLGFRSPNAAEEHLKALARKGVIEIVSGASRGIRLLQEEEEGLPLVGRVAAGEPLLAQQHIEGHYQVDPSLFKPNADFLLRVSGMSMKDIGIMDGDLLAVHKTQDVRNGQVVVARIDDEVTVKRLKKQGNKVELLPENSEFKPIVVDLRQQSFTIEGLAVGVIRNGDWLSAGDMRAANLWPSPLMIKRSKKNSLALSLTADQMVSALLDAEPPILYSEYDPTRPFSEASMMGLLTNLADRELVHMINWAKRVPGFVDLTLHDQVHLLECAWLEILMIGLVWRSMEHPGKLLFAPNLLLDRNQGKCVEGMVEIFDMLLATSSRFRMMNLQGEEFVCLKSIILLNSGVYTFLSSTLKSLEEKDHIHRVLDKITDTLIHLMAKAGLTLQQQHQRLAQLLLILSHIRHMSNKGMEHLYSMKCKNVVPLYDLLLEMLDAHRLHAPTSRGGASVEETDQSHLATAGSTSSHSLQKYYITGEAEGFPATV
# notes: domain: LexA DBD;domain: LBD; also called hERa; ERa
# Molecular target: T1, B42-NIF-1 (full-length), B42 activation …
# Experiment: yeast two-hybrid, B42-NIF-1 (full-length) against LexA-LBD, β-galactosidase
# Experimental: To examine for this possibility, the interaction of B42-NIF-1 (full-length), conditionally expressed from pJG4-5, was studied with LexA fusions of nuclear receptor LBDs (cTRα, ERa, RXRα, GR, RARα, and PPARα) in yeast, as shown in FIG. 7. In addition, a LexA-fusion of full-length cTRα was also tested against B42-NIF-1 (full-length) and gave similar results as with the cTRα LBD. […] To document that the LexA-LBD fusions were expressed and responded to ligand in yeast, similar studies were carried out with B42-NRC.
row,Binder,binding result
1,B1,no binding
2,B2,no binding
3,B3,no binding
4,B4,no binding
